Data as given in US20160272691A1, “COMPOSITIONS AND METHODS FOR TREATING CONDITIONS ASSOCIATED WITH y-HERPESVIRUSES” (NDSU RESEARCH FOUNDATION, priority 2013, published 2016).

Legend:
[1] = target: T1, His6-tagged Bcl-XL (residues 1-208, N52D, N66D) (human), Q07817; experiment: ITC, 25 °C
T1 chain: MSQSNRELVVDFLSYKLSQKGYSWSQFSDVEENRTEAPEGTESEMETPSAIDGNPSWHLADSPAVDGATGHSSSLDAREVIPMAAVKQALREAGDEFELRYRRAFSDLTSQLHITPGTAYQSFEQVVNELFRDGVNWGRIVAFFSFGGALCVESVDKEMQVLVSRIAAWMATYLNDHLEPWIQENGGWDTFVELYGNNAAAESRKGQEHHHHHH

[2] = target: T2, γHV68 M11 residues 1-136 (murine γHV68), P89884; experiment: ITC, 25 °C
T2 chain: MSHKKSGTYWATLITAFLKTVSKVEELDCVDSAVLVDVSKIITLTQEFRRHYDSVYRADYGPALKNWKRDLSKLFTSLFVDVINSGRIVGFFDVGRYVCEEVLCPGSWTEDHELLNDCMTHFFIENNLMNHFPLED

[3] = target: T1, His6-tagged Bcl-XL (residues 1-208, …); experiment: ITC (Table 4; quantity and unit in Table 1)
[4] = target: T2, γHV68 M11 residues 1-136 (murine …); experiment: ITC (Table 4; quantity and unit in Table 1)
[5] = target: T2, γHV68 M11 residues 1-136 (murine …); experiment: ITC
[6] = target: T1, His6-tagged Bcl-XL (residues 1-208, …); experiment: ITC
Bcl-2, P10415 [7] = experiment: ITC (Table 4; quantity and unit in Table 1)
Bcl-2, P10415, sequence (P10415 1-211 limits assumed): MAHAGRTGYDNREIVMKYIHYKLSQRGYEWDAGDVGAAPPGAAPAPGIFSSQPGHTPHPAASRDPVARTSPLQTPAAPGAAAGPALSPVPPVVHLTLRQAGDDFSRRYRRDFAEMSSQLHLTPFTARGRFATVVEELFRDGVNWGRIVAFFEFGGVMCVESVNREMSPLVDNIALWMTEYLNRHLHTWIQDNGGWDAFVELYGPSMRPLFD

Bcl-2, P10415 [8] = experiment: not stated in the sentence (ITC implied)
KSHV Bcl-2 (KSHV) = experiment: not stated in the sentence (ITC implied)

Row | Binder | Kd [1] [µM] | ΔG [1] [kcal/mol] | ΔH [1] [kcal/mol] | ΔS [1] [J/K · mol] | Kd [2] [µM] | ΔG [2] [kcal/mol] | ΔH [2] [kcal/mol] | ΔS [2] [J/K · mol] | Kd [3] [µM] | Kd [4] [µM] | further results
1 | GSGTMENASRRLKVTGDLFDIMSGQT (modifications not checked) [Beclin 1 BH3D-derived peptide L112A] | 110 | -5.4 | -10.1 | -66.3 | 4.33 | -7.32 | -11.3 | -56.1 | 110 | 4.3 | fold reduction of binding versus WT BH3D [5]: 3 fold
2 | GSGTMENLSRRLKVTEDLFDIMSGQT (modifications not checked) [Beclin 1 BH3D-derived peptide G120E] |  |  |  |  | 36.5 | -6.06 | -12.5 | -90 |  | 36.5 | fold reduction of binding affinity versus WT BH3D [5]: 26 fold
3 | GSGTMENLSRRLKVTGDLADIMSGQT (modifications not checked) [Beclin 1 BH3D-derived peptide F123A] | 408 | -4.63 | -7.34 | -38 | 5.2 | -7.22 | -14.2 | -97.8 | 408 | 5.2 | fold weakening of binding versus WT BH3D [6]: 10 fold; fold weakening of binding versus WT BH3D [5]: 4 fold
4 | GSGTMENLSRRLAVTGDLFDIMSGQT (modifications not checked) [Beclin 1 BH3D-derived peptide K117A] | 18.9 | -6.45 | -9 | -35.8 | 0.66 | -8.44 | -16.5 | -113 | 18.9 | 0.7 | Kd (Bcl-2, P10415 [7]): 24.5 µM; fold weakening of binding versus WT BH3D [6]: 10 fold; fold improvement of binding versus WT BH3D [5]: 2 fold
5 | GSGTMENLSRRLKVTGDLFDIMSGQT (modifications not checked) [Beclin 1 BH3D peptide, wild type] | 1.95 | -7.79 | -10.4 | -36.9 | 1.38 | -8.01 | -17 | -126 | 1.9 | 1.4 | Kd (Bcl-2, P10415 [7]): 10.4 µM; fold difference in TΔSapp versus binding to Bcl-XL [5]: 4 fold; fold difference in ΔHapp versus binding to Bcl-XL [5]: 2 fold; Kd (Bcl-2, P10415 [8]): 9 µM; Kd (KSHV Bcl-2 (KSHV)): 54 µM
6 | GSGTMENLSRRLKVTGALFDIMSGQT (modifications not checked) [Beclin 1 BH3D-derived peptide D121A] |  |  |  |  |  |  |  |  |  | 1.3 | 
7 | GSGTMENLSRRAKVTGDLFDIMSGQT (modifications not checked) [Beclin 1 BH3D-derived peptide L116A] |  |  |  |  | 178 | -5.11 | -8.7 | -50.3 |  | 178 | fold reduction of binding affinity versus WT BH3D [5]: > 70 fold
8 | GSGTMENLSRRLKVTEALFDIMSGQT (modifications not checked) [Beclin 1 BH3D-derived G120E+D121A double mutant peptide] |  |  |  |  | 6.43 | -7.08 | -14.9 | -110 |  | 6.4 | fold better affinity versus the G120E peptide [5]: 5.7 fold; fold weaker affinity versus WT BH3D [5]: 4.7 fold
